B1: C1-SUMO-H11-H4-Fc (Fc fusion)
chain: QVQLVESGGGLVQPGGSLRLSCAASGFTNDFYSIAWFRQAPGKEREGVSWLSVSDNTPTYVDSVKDRFTISRHNANNTVYLQMNMLKPEDTAIYYCAAGRFAGRDTWPSSYDYWGQGTQVTVSSGSGSGSDSEVNQEAKPEVKPEVKPETHINLKVSDGSSEIFFKIKKTTPLRRLMEAFAKRQGKEMDSLRFLYDGIRIQADQTPEDLDMEDNDIIEAHREQIGSGSGSQVQLVESGGGLMQAGGSLRLSCAVSGRTFSTAAMGWFRQAPGKEREFVAAIRWSGGSAYYADSVKGRFTISRDKAKNTVYLQMNSLKYEDTAVYYCAQTHYVSYLLSDYATWPYDYWGQGTQVTVSS
notes: also called C1-GSGSGS-SUMO-GSGSGS-H11-H4
B2: C1 trimer (VHH)
chain: QVQLVESGGGLVQPGGSLRLSCAASGFTNDFYSIAWFRQAPGKEREGVSWLSVSDNTPTYVDSVKDRFTISRHNANNTVYLQMNMLKPEDTAIYYCAAGRFAGRDTWPSSYDYWGQGTQVTVSSGSGSGSQVQLVESGGGLVQPGGSLRLSCAASGFTNDFYSIAWFRQAPGKEREGVSWLSVSDNTPTYVDSVKDRFTISRHNANNTVYLQMNMLKPEDTAIYYCAAGRFAGRDTWPSSYDYWGQGTQVTVSSGSGSGSQVQLVESGGGLVQPGGSLRLSCAASGFTNDFYSIAWFRQAPGKEREGVSWLSVSDNTPTYVDSVKDRFTISRHNANNTVYLQMNMLKPEDTAIYYCAAGRFAGRDTWPSSYDYWGQGTQVTVSS
B3: C1-SUMO-H3-Fc (Fc fusion)
chain: QVQLVESGGGLVQPGGSLRLSCAASGFTNDFYSIAWFRQAPGKEREGVSWLSVSDNTPTYVDSVKDRFTISRHNANNTVYLQMNMLKPEDTAIYYCAAGRFAGRDTWPSSYDYWGQGTQVTVSSGSGSGSDSEVNQEAKPEVKPEVKPETHINLKVSDGSSEIFFKIKKTTPLRRLMEAFAKRQGKEMDSLRFLYDGIRIQADQTPEDLDMEDNDIIEAHREQIGSGSGSQVQLVESGGGLVKTGGSLRLSCAASGRTFSTYSMGWFRQAPGKEREFVAGMRWTGSSTFYSDSVKGRFTVSRNNAKDTVYLHMNSLKPEDTAVYYCAITTIVRAYYTEYTEADFGSWGQGTQVTVS
notes: also called C1-GSGSGS-SUMO-GSGSGS-H3
B4: F2-SUMO-C5-Fc (Fc fusion)
chain: QVQLVESGGGLVQAGGSLRLACIASGRTFHSYVMAWFRQAPGKEREFVAAISWSSTPTYYGESVKGRFTISRDNAKNTVYLQMNRLKPEDTAVYFCAADRGESYYYTRPTEYEFWGQGTQVTVSSGSGSGSDSEVNQEAKPEVKPEVKPETHINLKVSDGSSEIFFKIKKTTPLRRLMEAFAKRQGKEMDSLRFLYDGIRIQADQTPEDLDMEDNDIIEAHREQIGSGSGSQVQLVESGGGSVQAGGSLTLSCVASGVTLGRHAIGWFRQAPGKERERVSCIRTFDGITSYVESTKGRFTISSNNAMNTVYLQMNSLKPEDTAVYFCALGVTAACSDNPYFWGQGTQVTVSS
notes: also called F2-GSGSGS-SUMO-GSGSGS-C5
B5: C5 (VHH)
VHH: QVQLVESGGGSVQAGGSLTLSCVASGVTLGRHAIGWFRQAPGKERERVSCIRTFDGITSYVESTKGRFTISSNNAMNTVYLQMNSLKPEDTAVYFCALGVTAACSDNPYFWGQGTQVTVSS
notes: also called VHH C5
B6: C1-SUMO-C5-Fc (Fc fusion)
chain: QVQLVESGGGLVQPGGSLRLSCAASGFTNDFYSIAWFRQAPGKEREGVSWLSVSDNTPTYVDSVKDRFTISRHNANNTVYLQMNMLKPEDTAIYYCAAGRFAGRDTWPSSYDYWGQGTQVTVSSGSGSGSDSEVNQEAKPEVKPEVKPETHINLKVSDGSSEIFFKIKKTTPLRRLMEAFAKRQGKEMDSLRFLYDGIRIQADQTPEDLDMEDNDIIEAHREQIGSGSGSQVQLVESGGGSVQAGGSLTLSCVASGVTLGRHAIGWFRQAPGKERERVSCIRTFDGITSYVESTKGRFTISSNNAMNTVYLQMNSLKPEDTAVYFCALGVTAACSDNPYFWGQGTQVTVSS
notes: also called C1-GSGSGS-SUMO-GSGSGS-C5
B7: VHH_H6 (VHH)
VHH: QVQLVESGGGLVQPGGSLTLSCVASESSLAPYRVAWFRQAPGKEREGVSCISRDAHPTSTYYTASVKGRFTMSRDNAKNTVYLQMNSLKPSDTAVYYCATDLGGYCSDSNYPRAWWGQGTQVTVSS
B8: VHH_H6-Fc (Fc fusion)
chain: B7 VHH
B9: A8 (VHH)
VHH: QVQLVESGGGLVQAGGSLRLSCAASGGTFSTAAMGWFRQAPGEERECVASIGWRGVRTWYADSVKGRFTISRDNPQNTVYLQMNNLKSGDTAVYYCAASVGNYGLPWAHFEYDFWGQGIQVTVSS
notes: also called 2_A8
B10: B12 (VHH)
VHH: QVQLVESGGGFVQPGGSLRLSCAVSGGTFSTYGMGWFRQAPGKEREIVAAIRRSGSTYYADSVRGRFTISRDNAKNSVLLQMNSLKPEDTAVYYCAARRAGREYEYWGQGTQVTVSS
notes: also called VHH B12

Legend:
[1] = target: T1, SARS-CoV-2 receptor-binding domain (amino acids 330-532), prototypical Wuhan/Victoria (SARS-CoV-2 (Wuhan/Victoria), UniProt P0DTC2 330-532); assay: SPR, RBD binding kinetics
[2] = target: T1, SARS-CoV-2 receptor-binding domain …; assay: SPR
[3] = target: T2, SARS-CoV-2 receptor-binding domain fused to hIgG1 Fc (SARS-CoV-2 (Wuhan/Victoria), UniProt P0DTC2 330-532); assay: SPR, trimer analyte, RBD ligand
[4] = target: T3, Spike protein on live SARS-CoV-2 Victoria strain (SARS-CoV-2 (Victoria), UniProt P0DTC2 14-1273); assay: cell-based or functional assay
[5] = target: T1, SARS-CoV-2 receptor-binding domain …; assay: SPR, VHH analyte over immobilised RBD
[6] = target: T3, Spike protein on live SARS-CoV-2 …; assay: cell-based or functional assay; remark: listed apart in the source
[7] = target: T1, SARS-CoV-2 receptor-binding domain …; assay: SPR, VHH analyte, biotinylated RBD ligand
[8] = target: T2, SARS-CoV-2 receptor-binding domain …; assay: SPR, VHH analyte, RBD-Fc ligand
[9] = target: T1, SARS-CoV-2 receptor-binding domain …; assay: SPR, RBD analyte, VHH_H6-Fc ligand
[10] = target: T1, SARS-CoV-2 receptor-binding domain …; assay: X-ray crystallography
[11] = target: T2, SARS-CoV-2 receptor-binding domain …; assay: SPR, VHH analyte over immobilised RBD

| Binder | Kd [1] | T1/2 [1] | koff [1] | kon [1] | fold increase in affinity on combining the VHHs [2] | other results |
| --- | --- | --- | --- | --- | --- | --- |
| B1 | 0.013 nM | 2.8 h | 6.8e-05 s⁻¹ | 5.1e+06 M⁻¹ s⁻¹ | ~40 fold |  |
| B2 |  |  |  |  |  | Kd [3]: 0.053 nM; T1/2 [3]: 4.03 h; koff [3]: 4.8e-05 s⁻¹; kon [3]: 900000 M⁻¹ s⁻¹; ND 50 MN assay, live virus [4]: 4.9 nM |
| B3 | 0.011 nM | 4.1 h | 4.7e-05 s⁻¹ | 4.3e+06 M⁻¹ s⁻¹ | ~40 fold |  |
| B4 | 0.00075 nM | 11 h | 1.7e-05 s⁻¹ | 2.3e+07 M⁻¹ s⁻¹ | ~85 fold |  |
| B5 |  |  |  |  |  | Kd [5]: 0.099 nM; T1/2 [5]: 0.2 h; IC50, neutralisation of SARS-CoV2, micro-titre neutralisation assay [6]: 32 nM; Kd [7]: 0.099 nM; T1/2 [7]: 0.2 h |
| B6 | 0.00163 nM | 246 h | 4.9e-05 s⁻¹ | 3e+07 M⁻¹ s⁻¹ | ~240 fold |  |
| B7 |  |  |  |  |  | Kd [8]: 0.472 nM; T1/2 [8]: 0.517 h |
| B8 |  |  |  |  |  | Kd [9]: 0.261 nM |
| B9 |  |  |  |  |  | binding result [10]: binds |
| B10 |  |  |  |  |  | Kd [11]: 0.077 nM; T1/2 [11]: 0.7 h; koff [11]: 0.00027 s⁻¹; kon [11]: 3.6e+06 M⁻¹ s⁻¹ |
